The target in assay [1] is T cell receptor of Ova-specific CD8+ T cells (OT-I), on OT-I cells (mouse). In words: cell-based or functional assay.
The target is the same in assay [2]. Briefly: flow cytometry; His-tagged protein pre-mixed with PE-labeled α-His mAb, incubated with OT-I cells at 37° C. for 5 hours.

As to “Kb(Ova)/ANXA5 carrying a His tag (peptide-MHC)”, the TCR Vα2 expression downregulated, percent of OT-I cells, compared to the α-His/PE control (flow cytometry) in assay [1] turned out to be 90%. Also, in assay [2], the mean fluorescence shift relative to the unstained control is 100 fold and the percent of OT-I cells pMHC+ (PE fluorescence) was determined as 98%.

(Values after patent US11987606.)
